Test results as given in patent US20180011114A1 (PUBLIC UNIVERSITY CORPORATION NARA MEDICAL UNIVERSITY, published 2018).

What was measured:
anti-FIXa-arm of ACE910 = biological target: T1, anti-FIXa-arm of ACE910; assay: ELISA, hybridoma culture supernatant
T1 construct: Q499/J327; also called anti-FIXa side Fab of ACE910; anti-FIXa-F(ab')2
Procedure: (§1) Mice and rats were immunized with anti-FIXa-F(ab′)2 or anti-FX-F(ab′)2. Cells obtained from the spleen removed from the mice or rats or from rat lymph nodes were subjected to cell fusion with mouse myeloma cells by following general methods to produce the hybridomas. The culture supernatants of the hybridomas were evaluated by ELISA which detects the binding of ACE910 to the anti-FIXa-arm or the anti-FX-arm, and ultimately, mouse antibodies, AQ8 and AQ1, and rat antibody, AQ512, which bind only to the anti-FIXa-arm but not to the anti-FX-arm of ACE910, and rat antibodies, AJ540, AJ114, AJ521, AJ522, and AJ541, which bind only to the anti-FX-arm but not to the anti-FIXa-arm of ACE910 were selected. In addition, the nucleotide sequences of the variable regions of the AQ8 antibody or the AJ540 antibody were analyzed. The nucleotide sequences of the variable regions of AQ8 and AJ540, and amino acid sequences predicted therefrom were analyzed using GENETYX Ver.9 (GENETYX CORPORATION).

anti-FX-arm of ACE910 = biological target: T2, anti-FX-arm of ACE910; assay: ELISA, hybridoma culture supernatant
T2 construct: also called anti-FX side Fab of ACE910; anti-FX-F(ab')2
Procedure: as §1

T1 sequence (VH, as listed by the source, chain 1 of 2): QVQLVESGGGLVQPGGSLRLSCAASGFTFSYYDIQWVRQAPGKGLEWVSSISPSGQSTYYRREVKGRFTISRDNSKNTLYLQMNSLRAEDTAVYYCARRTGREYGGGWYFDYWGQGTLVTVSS
T1 sequence (VL, as listed by the source, chain 2 of 2): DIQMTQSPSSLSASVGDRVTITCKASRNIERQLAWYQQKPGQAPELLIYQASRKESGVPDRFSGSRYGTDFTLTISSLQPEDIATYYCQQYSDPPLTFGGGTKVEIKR
T2 sequence (VH, as listed by the source, chain 1 of 2): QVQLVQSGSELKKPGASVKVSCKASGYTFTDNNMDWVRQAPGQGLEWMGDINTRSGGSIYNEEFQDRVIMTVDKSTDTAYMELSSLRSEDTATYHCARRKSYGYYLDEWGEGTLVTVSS
T2 sequence (VL, as listed by the source, chain 2 of 2): as the sequence (VL, as listed by the source, chain 2 of 2) above

| binding result (anti-FIXa-arm of ACE910) | binding result (anti-FX-arm of ACE910) | Binder |
| --- | --- | --- |
| no binding |  | AJ540 (antibody, V domains shown, Rat antibody from a hybridoma (culture supernatant in the ELISA); also called AJ540 antibody) VH: QIQLVQSGPELKKPGESVKISCKASGYTFTDYAMHWVKQVPGKGLKWMGWINTYTGKPTYADDFKGRFVFSLEASASTANLQISNLKNEDTANVFCAREGGGYYWYFDFWGPGTMVTVSS VL: DIVMTQSPTSMSISVGDRVTMNCKANQNVDFNVDWYQQKTGQSPKLLIYKASNRYTGVPDRFTGSGSGTDFTFTISNMQAEDLAVYYCMQSNSFPLTFGSGTNLEIK |
|  | no binding | AQ8 (antibody, V domains shown, Mouse antibody from a hybridoma (culture supernatant in the ELISA); also called AQ8 antibody) VH: EVNLVESGGGLVQPGGSMSLSCAASGFTFTDYYMSWVRQPPGKALEWLALIRNKANGYTTEYSASVKGRFTISRDNSQSILYLQMNALRAEDSATYYCARDSYYSYDGYAMDYWGQGTSVTVSS VL: DIQMTQSPASLAASVGETITITCQASENIYFSLAWYQQKQGKSPQLLIYNTDSLKDGVPSRFSGSGSGTQYSMKINSMQPEDTATYFCRQSYDFPWTFGGGTKLEIK |
